# T1: DC-SIGN-Fc (recombinant DC-SIGN fused to Fc), Q9NNX6
# T1 chain: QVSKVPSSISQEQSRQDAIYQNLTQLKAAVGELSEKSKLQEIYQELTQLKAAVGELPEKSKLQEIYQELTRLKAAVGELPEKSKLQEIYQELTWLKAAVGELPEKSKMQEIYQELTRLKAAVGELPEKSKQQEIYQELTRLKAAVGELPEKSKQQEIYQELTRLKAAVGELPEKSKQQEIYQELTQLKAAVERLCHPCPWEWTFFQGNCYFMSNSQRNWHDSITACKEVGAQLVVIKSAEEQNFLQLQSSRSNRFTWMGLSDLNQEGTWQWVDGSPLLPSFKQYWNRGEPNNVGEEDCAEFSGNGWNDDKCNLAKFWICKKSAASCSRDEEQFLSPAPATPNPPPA
# B1: DC-SIGN-Fc (recombinant DC-SIGN fused to Fc), Q9NNX6 59-404 (Fc fusion)
# chain: QVSKVPSSISQEQSRQDAIYQNLTQLKAAVGELSEKSKLQEIYQELTQLKAAVGELPEKSKLQEIYQELTRLKAAVGELPEKSKLQEIYQELTWLKAAVGELPEKSKMQEIYQELTRLKAAVGELPEKSKQQEIYQELTRLKAAVGELPEKSKQQEIYQELTRLKAAVGELPEKSKQQEIYQELTQLKAAVERLCHPCPWEWTFFQGNCYFMSNSQRNWHDSITACKEVGAQLVVIKSAEEQNFLQLQSSRSNRFTWMGLSDLNQEGTWQWVDGSPLLPSFKQYWNRGEPNNVGEEDCAEFSGNGWNDDKCNLAKFWICKKSAASCSRDEEQFLSPAPATPNPPPA
# Assays:
# [1] = molecular target: mannosylated surface IgM (sIgM-Mann) of the FL-derived cell line WSU-FSCCL (human (endogenous in WSU-FSCCL)) (UniProt P01871)
# [2] = molecular target: mannosylated surface IgM (sIgM-Mann) of the FL-derived cell line WSU-FSCCL (human (endogenous in WSU-FSCCL)) (UniProt P01871); remark: listed apart in the source
# [3] = molecular target: DC-SIGN-HA (DC-SIGN fused to the HA epitope tag) (UniProt Q9NNX6); experiment: SEC; analytical gel filtration of recombinant DC-SIGN-Fc and DC-SIGN-HA; data not shown; the high Stokes radius prevented a more accurate measurement of molecular mass
# [4] = molecular target: T1, DC-SIGN-Fc (recombinant DC-SIGN fused …); experiment: as above; conditions: remark: other sources report otherwise
# Chain of UniProt P01871 (P01871 whole entry, looked up, the tested form may be a part): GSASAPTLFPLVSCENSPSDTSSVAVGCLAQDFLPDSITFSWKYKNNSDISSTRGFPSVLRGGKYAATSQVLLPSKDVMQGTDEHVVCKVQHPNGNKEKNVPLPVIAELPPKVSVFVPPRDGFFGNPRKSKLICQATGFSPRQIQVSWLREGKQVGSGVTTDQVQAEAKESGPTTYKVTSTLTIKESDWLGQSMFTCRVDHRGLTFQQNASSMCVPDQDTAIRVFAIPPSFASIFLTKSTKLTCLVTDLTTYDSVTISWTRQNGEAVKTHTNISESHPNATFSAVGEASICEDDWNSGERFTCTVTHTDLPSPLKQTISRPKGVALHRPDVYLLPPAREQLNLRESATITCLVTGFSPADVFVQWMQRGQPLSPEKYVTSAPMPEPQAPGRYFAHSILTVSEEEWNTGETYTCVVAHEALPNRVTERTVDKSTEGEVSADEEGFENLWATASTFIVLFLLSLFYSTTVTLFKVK
molecule,measurement,setting,value
DC-SIGN-Fc (recombinant DC-SIGN fused to Fc) (from UniProt Q9NNX6 59-404) (Fc fusion),inhibition of the anti-IgM-induced iCa2+ flux in WSU-FSCCL cells after pre-exposure to DC-SIGN-Fc,[1],80%
same,recovery of the anti-IgM-induced iCa2+ response in WSU-FSCCL cells after removal of pre-bound DC-SIGN-Fc with mannan (15 or 30 min at 37 °C),[2],50%
DC-SIGN-HA (DC-SIGN fused to the HA epitope tag) (from UniProt Q9NNX6 1-404) (natural protein),stoichiometry N,[3],> 4
same,inhibition of the anti-IgM-induced iCa2+ flux in WSU-FSCCL cells after pre-exposure to DC-SIGN-HA,[1],50%
B1,stoichiometry N,[4],> 4

# — article PMC8175722
